Source: doi:10.1101/2020.07.07.192807 (bioRxiv, 2020)
Positions count from the first letter of the chain named. Numbers in names are those of the source.

B1: Wild type MtrR of Neisseria gonorrhoeae (strain FA19), hexa-histidine tagged (natural protein)
chain: MRKTKTEALKTKEHLMLAALETFYRKGIARTSLNEIAQAAGVTRGALYWHFKNKEDLFDALFQRICDDIENCIAQDAADAEGGSWTVFRHTLLHFFERLQSNDIHYKFHNILFLKCEHTEQNAAVIAIARKHQAIWREKITAVLTEAVENQDLADDLDKETAVIFIKSTLDGLIWRWFSSGESFDLGKTAPRIIGIMMDNLENHPCLRRK
B2: H105Y mutant MtrR of Neisseria gonorrhoeae (from an antibiotic resistant clinical isolate), hexa-histidine tagged (natural protein)
chain: B1 chain with H105Y

Molecular target: the molecule itself
Experiment: cross-linking

Protein	stoichiometry N
B1	2
B2	2
